Consider three proteins from patent publication US20040081647.

The target of the series is recombinant human TNFα (RDI) (UniProt P01375).
Sequence of recombinant human TNFα (RDI) (P01375 77-233): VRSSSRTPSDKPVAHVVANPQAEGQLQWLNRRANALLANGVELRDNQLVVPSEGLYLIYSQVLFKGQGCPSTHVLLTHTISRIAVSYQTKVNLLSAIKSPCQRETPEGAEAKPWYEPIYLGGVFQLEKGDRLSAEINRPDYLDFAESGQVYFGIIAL

B1: MMP7 (enzyme, UniProt P09237 95-267, looked up, species assumed)
Matrilysin: YSLFPNSPKWTSKVVTYRIVSYTRDLPHITVDRLVSKALNMWGKEIPLHFRKVVWGTADIMIGFARGAHGDSYPFDGPGNTLAHAFAPGTGLGGDAHFDEDERWTDGSSLGINFLYAATHELGHSLGMGHSSDPNAVMYPTYGNGDPQNFKLSQDDIKGIQKLYGKRSNSRKK
With B1, the “log reduction in TNFα activity (L929 cytotoxicity bioassay after overnight digestion)” value is on record as “MMP7 (1.22)”.

B2: Cathepsin G (enzyme, UniProt P08311 21-244, looked up, species assumed)
Cathepsin G: IIGGRESRPHSRPYMAYLQIQSPAGQSRCGGFLVREDFVLTAAHCWGSNINVTLGAHNIQRRENTQQHITARRAIRHPQYNQRTIQNDIMLLQLSRRVRRNRNVNPVALPRAQEGLRPGTLCTVAGWGRVSMRRGTDTLREVQLRVQRDRQCLRIFGSYDPRRQICVGDRRERKAAFKGDSGGPLLCNNVAHGIVSYGKSSGVPPEVFTRVSSFLPWIRTTMRS
As for B2, the “inactivation of TNFα (L929 cytotoxicity bioassay after overnight digestion)” value was “Cathepsin G (under: Proteases that did not inactivate TNF)”.

B3: ADAMTS4 (enzyme, UniProt O75173 213-837, looked up, species assumed)
A disintegrin and metalloproteinase with thrombospondin motifs 4: FASLSRFVETLVVADDKMAAFHGAGLKRYLLTVMAAAAKAFKHPSIRNPVSLVVTRLVILGSGEEGPQVGPSAAQTLRSFCAWQRGLNTPEDSDPDHFDTAILFTRQDLCGVSTCDTLGMADVGTVCDPARSCAIVEDDGLQSAFTAAHELGHVFNMLHDNSKPCISLNGPLSTSRHVMAPVMAHVDPEEPWSPCSARFITDFLDNGYGHCLLDKPEAPLHLPVTFPGKDYDADRQCQLTFGPDSRHCPQLPPPCAALWCSGHLNGHAMCQTKHSPWADGTPCGPAQACMGGRCLHMDQLQDFNIPQAGGWGPWGPWGDCSRTCGGGVQFSSRDCTRPVPRNGGKYCEGRRTRFRSCNTEDCPTGSALTFREEQCAAYNHRTDLFKSFPGPMDWVPRYTGVAPQDQCKLTCQAQALGYYYVLEPRVVDGTPCSPDSSSVCVQGRCIHAGCDRIIGSKKKFDKCMVCGGDGSGCSKQSGSFRKFRYGYNNVVTIPAGATHILVRQQGNPGHRSIYLALKLPDGSYALNGEYTLMPSPTDVVLPGAVSLRYSGATAASETLSGHGPLAQPLTLQVLVAGNPQDTRLRYSFFVPRPTPSTPRPTPQDWLHRRAQILEILRRRPWAGRK
For the protein B3, the “inactivation of TNFα (L929 cytotoxicity bioassay after overnight digestion)” value is “ADAMTS4 (under: Proteases that did not inactivate TNF)”.
